Key:
[1] = biological target: nucleosome core particle (NCP) with human histones H2A, H2B, H3.1 and H4 and the 145-base pair Widom 601 DNA, P04908;P06899;P68431;P62805; experiment: gel shift assay; settings: NCP 0.52 µM, dsDNA 50-mer competitor DNA included, read off a plot
[2] = biological target: human SET8 (KMT5A Isoform 2), Q9NQR1-2; experiment: gel shift assay; settings: NCPapd 0.52 µM, dsDNA 50-mer competitor DNA included, read off a plot
Chain of human SET8 (KMT5A Isoform 2), Q9NQR1-2 (Q9NQR1 whole entry, looked up, canonical isoform): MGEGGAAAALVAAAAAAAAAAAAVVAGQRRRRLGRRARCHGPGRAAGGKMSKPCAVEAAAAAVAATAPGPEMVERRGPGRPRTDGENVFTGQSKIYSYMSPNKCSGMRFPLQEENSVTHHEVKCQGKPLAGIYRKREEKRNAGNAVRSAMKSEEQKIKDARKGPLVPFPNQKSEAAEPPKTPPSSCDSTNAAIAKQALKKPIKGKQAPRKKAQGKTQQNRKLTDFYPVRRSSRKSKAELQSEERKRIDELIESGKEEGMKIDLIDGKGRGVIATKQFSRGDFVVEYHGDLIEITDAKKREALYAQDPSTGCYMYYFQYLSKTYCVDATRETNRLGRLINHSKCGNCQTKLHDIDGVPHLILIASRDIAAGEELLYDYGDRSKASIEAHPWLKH

response ([1]; SET8 R188A/R192A 1.0 µM, parent: est. 61) [%]	response ([1]; SET8 R188A/R192A 2.1 µM, parent: est. 91) [%]	response ([2]; SET8 1.0 µM, parent: est. 61) [%]	response ([2]; SET8 2.1 µM, parent: est. 91) [%]	Substance
23	54	–	–	human SET8 (KMT5A Isoform 2) (from UniProt Q9NQR1-2) R188A; R192A
–	–	4.5	13	nucleosome core particle (NCP) with human histones H2A, H2B, H3.1 and H4 and the 145-base pair Widom 601 DNA (from UniProt P04908;P06899;P68431;P62805) H2A:E56T; H2A:E61T; H2A:E64T; H2A:D90S; H2A:E91T; H2A:E92T; H2B:E105T; H2B:E113T

— paper PMC7893823
